Reference: publication PMC6547419

Columns and labels:
[1] = target: T1, rVEGF164 (rat, UniProt P16612-2 27-190); assay: ELONA1
T1 sequence: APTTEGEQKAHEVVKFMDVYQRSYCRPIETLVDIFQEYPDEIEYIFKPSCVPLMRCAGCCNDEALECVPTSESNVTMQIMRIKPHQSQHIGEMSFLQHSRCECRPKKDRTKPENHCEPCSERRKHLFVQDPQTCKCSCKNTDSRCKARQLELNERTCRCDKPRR

[2] = target: hVEGF165 (human, UniProt P15692-4 27-191); assay: ELONA1
[3] = target: T1, rVEGF164; assay: ELONA2

## TGTGGGGGTGGACGGGCCGGGTAGA (ssDNA) [V7t1]
[1]
  Kd: 620 ± 140 pM
[2]
  Kd: 770 ± 170 pM
[3]
  Kd: 4300 ± 500 pM
